Molecular target: HIV-1 IIIB p24 recombinant protein (HIV-1 IIIB)
Assay: SPR, mAb immobilized on a Protein A chip, 0-200 nM p24, room temperature

B1: N60P55 (antibody, V domains shown)
VH: QVQLRESGPGLVKPSATLSLTCIVSGGSMSGYYWSWIRQPPGKGLEWIGHIDNNERTISSPSLNSRVTVSPDTSRNRFTLTLSSVTAADTATYYCARHVVYGGLDIWGQGTLVTVSS
VL: EIVLTQSPGTLSLSPGERASLSCRASDIVSINYFAWYQQKPGQAPRLLISGASVRATGIPDRFSGSGSGTDFTLTINRLEPEDVAVYYCQQHGSSPTFGQGTKVEIK
  Kd: 0.0917 nM
  koff: 6.55e-05 s⁻¹
  kon: 715000 M⁻¹ s⁻¹

Source: patent US20200182883A1
